Laboratory results: article PMC4110014

Assays:
Caldendrin full length [1] = target: Caldendrin full length (UniProt O88751); experiment: SEC; Superdex 75, ÄKTA FPLC, 50 mM Tris, 100 mM KCl, 500 µM Mg2+ with 200 µM EGTA or 100 µM Ca2+; monomer to dimer
Caldendrin full length [2] = target: Caldendrin full length (UniProt O88751); experiment: SPR; Biacore X-100, CM5 chip, ligand amine-coupled, 25°C, flow 10 µl/min; running buffer with 1 mM Mg2+/500 µM Ca2+ (column 'Ca2+'); molar binding activity deduced from the dissociation phase
Caldendrin full length [3] = target: Caldendrin full length (UniProt O88751); experiment: SPR; Biacore X-100, CM5 chip, ligand amine-coupled, 25°C, flow 10 µl/min; running buffer with 1 mM Mg2+/1 mM EGTA (column 'EGTA'); molar binding activity deduced from the dissociation phase
Caldendrin full length [4] = target: Caldendrin full length (UniProt O88751); experiment: cross-linking + SEC; protein incubated with 0.01% glutaraldehyde, then Superdex 75 gel filtration
Caldendrin full length [5] = target: Caldendrin full length (UniProt O88751); experiment: dynamic light scattering; Zetasizer Nano S, 25°C, 50 mM Tris, 100 mM KCl, Mg2+ with EGTA or with 50 µM Ca2+; monomer to dimer
[6] = target: Caldendrin-C-terminus (Caldendrin-Ct, residues 137–298) (UniProt O88751); experiment: SPR; Biacore X-100, CM5 chip, ligand amine-coupled, 25°C, flow 10 µl/min; running buffer with 1 mM Mg2+/500 µM Ca2+ (column 'Ca2+'); molar binding activity deduced from the dissociation phase
[7] = target: Caldendrin-C-terminus (Caldendrin-Ct, residues 137–298) (UniProt O88751); experiment: SPR; Biacore X-100, CM5 chip, ligand amine-coupled, 25°C, flow 10 µl/min; running buffer with 1 mM Mg2+/1 mM EGTA (column 'EGTA'); molar binding activity deduced from the dissociation phase

Caldendrin-C-terminus (Caldendrin-Ct, residues 137–298), O88751 137-298 (domain or fragment; other documents disagree on this pair), sequence (O88751 137-298): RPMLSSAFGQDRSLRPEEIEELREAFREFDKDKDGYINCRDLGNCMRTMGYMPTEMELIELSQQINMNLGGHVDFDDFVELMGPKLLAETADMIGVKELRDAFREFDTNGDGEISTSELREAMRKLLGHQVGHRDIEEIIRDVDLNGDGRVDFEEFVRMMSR

stoichiometry N (Caldendrin full length [1])	molar binding activity (Caldendrin full length [2])	molar binding activity (Caldendrin full length [3])	stoichiometry N (Caldendrin full length [4])	stoichiometry N (Caldendrin full length [5])	molar binding activity [6]	molar binding activity [7]	Substance
2	0.0757	0.0215	2	2	–	–	Caldendrin full length (from UniProt O88751 1-298) (natural protein)
–	–	–	–	–	0.0373	0.0541	Caldendrin-C-terminus (Caldendrin-Ct, residues 137–298), O88751 137-298 (domain or fragment; other documents disagree on this pair)
